Reference: patent US20260007756A1, “COMPOUND AND USE THEREOF” (COHERENT BIOPHARMA (SUZHOU) LIMITED, priority 2022, published 2026)
Converted amounts (≈) assume the structure as drawn. Read-outs that look alike come from different tables or passages of the source. Blank lines part the entries; values can stand above or below the compound they belong to.

How the values were obtained:
SK-OV-3 = assay: Expansion inhibition of tumor cells (Example 10, CCK-8); type: cell-based; settings: Homo sapiens, SK-OV-3 (FOLR1 overexpression), 72 h
Description: Samples were serially diluted with medium (serially 5-fold diluted from 10 μM) to 9 concentrations. […] Negative and blank controls were set.
A CCK-8 developing solution was added at 10 μL/well (10% of the liquid volume in the wells). The plates were incubated at 37° C. for a proper time (the OD value was controlled within the range of 1.0-2.5 as possible). The plate covers were removed, and the 96-well plates were loaded on a microplate reader (Molecular Devices SpectraMax iD5) to read the measurement at 450 nm.

Solubility study in PBS = type: physicochemical; settings: aqueous buffer, thermodynamic from solid; PBS (pH 7.2 to 7.4); read-out: Solubility, concentration
Description: The mixture was vortexed for 2 min until the solid was dissolved. The solubility was calculated as: C=m/V, C: concentration, m: sample weight, V: PBS total volume.

Plasma stability study 2 = type: in vitro ADME; settings: mouse plasma, 37° C.
Description: • 1) The conjugate compounds were prepared into 1 mg/mL stock solutions with 0.1% TFA-acetonitrile water (1:1); • 2) 10 μL of 1 mg/mL compound stock solution was added into 90 μL of fresh plasma, and the mixture was well mixed by gentle shaking, and transferred to a thermostatic incubator at 37° C. for 0 h, 0.5 h, 1 h, 2 h, 4 h, 6 h, or 24 h of incubation; • 3) at the time points, samples were taken out and 300 μL of methanol solution (containing 10 ng/ml of terfenadine) was added for protein precipitation; • 4) the mixture was centrifuged (13 min, 4° C., 12000 rpm) and the supernatant was collected, and preserved in a −80° C. refrigerator; after collection, the samples were loaded for LC-MS analysis.

22RV1 = type: cell-based, human; settings: 22RV1, 72 h, CellTiter-Glo
Excerpt: (§1) Negative and blank controls were set.

MDA-MB-231 = type: cell-based, human; settings: MDA-MB-231, 72 h, CellTiter-Glo
Excerpt: as §1

BRD4 = target: T1, BRD4 (Homo sapiens, UniProt O60885); assay: Target protein degradation activity, Western Blot; type: cell-based
T1 construct: endogenous in cells; host or cells: MDA-MB-231, 22RV1
Description: Information on cell lines: MDA-MB-231 (human breast cancer cell) and 22RV1 (human prostate cancer cell)
• 1) A proper amount of RIPA lysis buffer was added to the Protease Inhibitor Cocktail (1:100) a few minutes before use. • 2) The medium of the cells was discarded. The cells were collected by cell scraper, centrifuged, and washed twice with pre-cooled PBS. The lysis buffer was added at 300 μL per dish. The centrifuge tube was placed on ice and mixed by pipetting for 5 min to allow the lysis buffer to fully contact the cells. • 3) After 30 min of lysis, the lysate was collected, transferred to a centrifuge tube, and centrifuged for 15 min at 12000×g to pelletize the cell debris. • 4) The supernatant was transferred to a new centrifuge tube, for subsequent Western Blot. […]
The antibody marked by HRP was coupled with an enhanced chemiluminescence reagent for chromogenesis, and the exposure was conducted via an X-ray film. The positions of the antigen-antibody (primary antibody)-antibody (secondary antibody) complex on the nitrocellulose membrane were determined by means of development, washing, and fixation. […]

β-glucosidase = settings: PBS pH 6.8, 25° C.
Description: • 1) CR202AL was formulated into a 500 μg/mL stock solution with PBS (pH 6.8); • 2) 100 μL of 500 μg/mL compound stock solution was added to 775 μL of PBS (pH=6.8) before 125 μL of 100 U/mL β-glucosidase was added, and the mixture was well mixed by gentle shaking. • 3) The cleavage reaction system in step 2) was transferred to a thermostatic incubator at 25° C. for 0 h, 1 h, 2 h, 4 h, or 24 h of incubation. Samples were taken and loaded at various time points for LC-MS analysis.

C4-2 = settings: C4-2, 72 h, CellTiter-Glo
Description: Cells were prepared in advance, trypsinized, collected, counted, diluted to 1.5×10^4 cells/mL in a complete cell culture medium, and plated in 96-well plates. The diluted cell suspension was added at 100 μL/well, and negative and blank control wells were set on each plate. The 96-well plates with the added cells were incubated overnight at 37° C. in a 5% CO2 incubator.
Samples were serially diluted with medium (serially 3-fold diluted from 10 μM) to 9 concentrations. The medium in the plates was discarded, and the drug solutions were added at 100 μL per well to a 96-well plate in triplicate. Negative and blank controls were set. The plates were incubated at 37° C. for 72 h in a 5% CO2 incubator.
The CellTiter-Glo buffer was thawed and warmed to room temperature, and the CellTiter-Glo substrate was warmed to room temperature. The CellTiter-Glo buffer was added to the flask containing CellTiter-Glo substrate to dissolve the substrate, thereby preparing a CellTiter-Glo working solution, which was then vortexed slowly to complete dissolution. The cell culture plates were equilibrated at room temperature for 30 min, before the CellTiter-Glo working solution was added at 50 μL/well (about half the volume of cell culture medium in each well). The plate was covered by aluminum foil to keep out of light. The culture plate was shaken on an orbital shaker for 2 min to induce cell lysis. The culture plate was left to stand at room temperature for 10 min to stabilize the luminescence signals. The luminescence signal was detected on a microplate reader (Molecular Devices SpectraMax iD5).
Four-parameter curves were fitted using GraphPad Prism 8.0.2 to give IC50 values.

IC50 (SK-OV-3): 31.5 nM
Compound: Cc1ncsc1-c1ccc(CNC(=O)C2CC(O)CN2C(=O)C(NC(=O)COCCOCC(=O)NC2(C(=O)NCCCn3cc(-c4ccc(OC(F)(F)F)cc4)c4cc(CN5CCN(Cc6c(Cl)cccc6Cl)CC5)ccc43)CCNCC2)C(C)(C)C)cc1 (centres unmarked) [CR202CF]

Compound: CC[C@@H]1C(=O)N(C)c2cnc(Nc3ccc(-c4cn([C@H]5CC[C@@H](N(CCOCCC#Cc6cccc7c6CN(C6CCC(=O)NC6=O)C7=O)C(=O)OCc6ccc(O[C@@H]7O[C@H](C(=O)O)[C@@H](O)[C@H](O)[C@H]7O)c(NC(=O)CCNC(=O)COCCOCCn7cc(C[C@H](NC(=O)[C@H](CCCCN)NC(=O)[C@H](CC(=O)O)NC(=O)[C@H](CC(=O)O)NC(=O)Cc8ccc(CNC(=O)NCCCC[C@H](NC(=O)N[C@@H](CCC(=O)O)C(=O)O)C(=O)O)cc8)C(=O)N[C@@H](CCCCNC(=O)CC[C@H](NC(=O)c8ccc(NCc9cnc%10[nH]c(N)nc(=O)c%10n9)cc8)C(=O)O)C(N)=O)nn7)c6)CC5)nn4)cc3OC)nc2N1C1CCCC1 (some centres unmarked) [CR202AL]
solubility at 2 min (Solubility study in PBS): 5700 µg/mL (≈ 1910 µM) | CR20274 release rate (actual release/theoretical release) (Plasma stability study 2; 0 h): 0.01% | Residual rate of principal component (Plasma stability study 2; 0 h): 76.04% | CR20274 release rate (actual release/theoretical release) (Plasma stability study 2; 0.5 h): 0.47% | remaining at 0.5 h, 100 μg/mL (Plasma stability study 2; 0.5 h, read-out: Residual rate of principal component): 69.8% | CR20274 release rate (actual release/theoretical release) (Plasma stability study 2; 1 h): 0.86% | remaining at 1 h, 100 μg/mL (Plasma stability study 2; 1 h, read-out: Residual rate of principal component): 78.1% | CR20274 release rate (actual release/theoretical release) (Plasma stability study 2; 2 h): 0.96% | remaining at 2 h, 100 μg/mL (Plasma stability study 2; 2 h, read-out: Residual rate of principal component): 75.6% | CR20274 release rate (actual release/theoretical release) (Plasma stability study 2; 4 h): 2.60% | remaining at 4 h, 100 μg/mL (Plasma stability study 2; 4 h, read-out: Residual rate of principal component): 74.9% | CR20274 release rate (actual release/theoretical release) (Plasma stability study 2; 6 h): 3.69% | remaining at 6 h, 100 μg/mL (Plasma stability study 2; 6 h, read-out: Residual rate of principal component): 57.1% | CR20274 release rate (actual release/theoretical release) (Plasma stability study 2; 24 h): 28.17% | Residual rate of principal component (Plasma stability study 2; 24 h): 1.20% | IC50 (22RV1): 6.3 nM | IC50 (MDA-MB-231): 2.5 nM | Degradation of BRD4 (Western Blot) (BRD4; 3 nM over 6 h): almost completely degrading | Degradation of BRD4 (Western Blot) (BRD4; at 24 h (FIG. 4B)): still retain strong degradation activity | CR20274 release rate of CR202AL after cleavage (β-glucosidase; 0 h): 5.16% | Principal component residue of CR202AL after cleavage (β-glucosidase; 0 h): 100.00% | CR20274 release rate of CR202AL after cleavage (β-glucosidase; 1 h): 107.33% | Principal component residue of CR202AL after cleavage (β-glucosidase; 1 h): 26.70% | CR20274 release rate of CR202AL after cleavage (β-glucosidase; 2 h): 146.03% | Principal component residue of CR202AL after cleavage (β-glucosidase; 2 h): 9.75% | CR20274 release rate of CR202AL after cleavage (β-glucosidase; 4 h): 146.54% | Principal component residue of CR202AL after cleavage (β-glucosidase; 4 h): 4.87% | CR20274 release rate of CR202AL after cleavage (β-glucosidase; 24 h): 100.80% | Principal component residue of CR202AL after cleavage (β-glucosidase; 24 h): 0.00% | IC50 (C4-2): 0.5 nM

IC50 (SK-OV-3): 0.3 nM
Compound: Cc1ncsc1-c1ccc(CNC(=O)C2CC(O)CN2C(=O)C(NC(=O)COCCOCCOCC(=O)NC2(C(=O)NCCCn3cc(-c4ccc(OC(F)(F)F)cc4)c4cc(CN5CCN(Cc6c(Cl)cccc6Cl)CC5)ccc43)CCNCC2)C(C)(C)C)cc1 (centres unmarked) [CR202CI]
